Reference: patent US20160251440A1 (Ablynx, published 2016)
Where a chain is given by its changes, count along the chain named.

What was measured:
[1] = biological target: T1, recombinant IL-3Rα ectodomain (human, UniProt P26951 19-305); assay: ELISA on recombinant IL-3Ra ectodomain (panel 'IL-3Ra ELISA', lower left)
T1 construct: extracellular domain; also called recombinant IL-3Ra; biotinylated-IL-3Rα ectodomain
T1 sequence (looked up): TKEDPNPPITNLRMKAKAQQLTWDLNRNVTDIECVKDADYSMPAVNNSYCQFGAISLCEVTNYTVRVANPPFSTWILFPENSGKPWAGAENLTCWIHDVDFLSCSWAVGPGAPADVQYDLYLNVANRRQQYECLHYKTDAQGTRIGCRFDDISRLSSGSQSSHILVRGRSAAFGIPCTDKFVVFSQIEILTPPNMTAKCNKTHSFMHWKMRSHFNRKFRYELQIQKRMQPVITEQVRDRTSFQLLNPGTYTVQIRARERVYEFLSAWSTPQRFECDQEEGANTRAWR

[2] = biological target: T2, human CXCR4 (on cells, viral lipoparticles or membrane extracts) (human, UniProt P61073 1-352); assay: cell-based or functional assay
T2 sequence (P61073 whole entry): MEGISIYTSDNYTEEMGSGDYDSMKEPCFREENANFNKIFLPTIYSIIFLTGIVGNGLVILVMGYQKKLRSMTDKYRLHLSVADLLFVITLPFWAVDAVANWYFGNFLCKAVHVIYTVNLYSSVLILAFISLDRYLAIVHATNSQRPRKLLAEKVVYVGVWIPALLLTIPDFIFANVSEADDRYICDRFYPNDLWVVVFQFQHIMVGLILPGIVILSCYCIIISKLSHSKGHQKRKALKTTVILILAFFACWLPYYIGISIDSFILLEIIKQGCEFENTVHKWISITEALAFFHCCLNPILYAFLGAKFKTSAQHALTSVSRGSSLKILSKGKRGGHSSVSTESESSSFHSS

[3] = biological target: T2, human CXCR4 (on cells, viral …); assay: cell-based or functional assay; remark: listed apart in the source
[4] = biological target: T1, recombinant IL-3Rα ectodomain; assay: ELISA on recombinant IL-3Ra ectodomain (both lower panels)
[5] = biological target: T2, human CXCR4 (on cells, viral …); assay: ELISA, CXCR4 viral lipoparticles
[6] = biological target: T2, human CXCR4 (on cells, viral …); assay: FACS, Jurkat cells
[7] = biological target: T2, human CXCR4 (on cells, viral …); assay: FACS displacement of 30 nM biotin-SDF-1, Caki-CXCR4 cells
[8] = biological target: T2, human CXCR4 (on cells, viral …); assay: FACS, Caki-CXCR4 cells
[9] = biological target: T3, human IL-3Rα (CD123), cell-expressed (human, UniProt P26951 19-378); assay: FACS, MOLM-13 cells
T3 construct: whole, on cells; also called IL-3Ra; Hek-IL-3Rα
T3 sequence (P26951 19-378): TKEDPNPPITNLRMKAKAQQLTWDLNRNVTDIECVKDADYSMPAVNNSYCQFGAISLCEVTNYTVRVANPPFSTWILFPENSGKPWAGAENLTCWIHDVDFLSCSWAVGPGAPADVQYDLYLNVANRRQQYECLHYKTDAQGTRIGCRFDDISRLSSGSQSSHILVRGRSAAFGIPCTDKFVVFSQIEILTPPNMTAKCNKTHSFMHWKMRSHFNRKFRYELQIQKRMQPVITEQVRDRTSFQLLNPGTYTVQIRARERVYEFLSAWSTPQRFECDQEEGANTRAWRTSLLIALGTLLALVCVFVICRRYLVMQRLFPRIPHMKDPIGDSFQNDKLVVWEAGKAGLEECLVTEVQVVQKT

[10] = biological target: T1, recombinant IL-3Rα ectodomain; assay: SPR ProteOn, immobilised IL-3Rα ectodomain
[11] = biological target: T1, recombinant IL-3Rα ectodomain; assay: competition ELISA, coated mAb 7G3 + biotinylated IL-3Rα ectodomain
[12] = biological target: T3, human IL-3Rα (CD123), cell-expressed; assay: flow cytometry on Molm-13 cells; EC50(M) printed in the legend box beside the curves
[13] = biological target: T1, recombinant IL-3Rα ectodomain; assay: ELISA on recombinant IL-3Ra ectodomain (lower right panel)
[14] = biological target: T4, CXCR4 and IL-3Rα (CD123) co-expressed on MOLM-13 / THP-1 cells (human, UniProt P61073 1-352; P26951 19-378); assay: flow cytometry on MOLM-13 cells (IL-3Ra higher than CXCR4)
T4 construct: whole, on cells; two separate membrane proteins on one cell, not a complex; target of bispecifics on double-positive cells; also called CXCR4+/CD123+ cells
T4 sequence (P61073 whole entry, one chain of several): as the sequence (P61073 whole entry) above

B1: 55A01-35GS-14D09 (bispecific antibody)
chain: EVQLVESGGGSVQAGGSLRLSCTTSGRALNMYVMGWFRQAPGNEREFVAATSSSGGSTSYPDSVKGRFTISRDNAKNTVYLQMNSLKPEDTAAYRCAASPYVSTPTMNILEEYRYWGQGTLVTVSSGGGGSGGGGSGGGGSGGGGSGGGGSGGGGSGGGGSEVQLVESGGGLVQAGGSLRLSCVASGISSSKRNMGWYRQAPGKQRESVATISSGGNKDYTDAVKDRFTISRDTTKNTVYLQMNSLKPEDTAVYYCKIEAGTGWATRRGYTYWGQGTLVTVSS
notes: FLAG3-His6 also made; also called CD123#2-CXCR4#1; 55A01-14D09
- EC50 (read off the curve) [1]: ~1 nM
- Fold inc. vs CXCR4#1, Jurkat E6-1 [2]: 0.12 fold
- Fold inc. vs CXCR4#1, MOLM-13 [2]: 0.03 fold
- IC50, CXCL-12 chemotaxis, Jurkat E6-1 [2]: 85 nM
- IC50, CXCL-12 chemotaxis, MOLM-13 [2]: 290 nM

B2: 14D09 (VHH)
VHH: EVQLVESGGGLVQAGGSLRLSCVASGISSSKRNMGWYRQAPGKQRESVATISSGGNKDYTDAVKDRFTISRDTTKNTVYLQMNSLKPEDTAVYYCKIEAGTGWATRRGYTYWGQGTLVTVSS
notes: also called CXCR4#1; 14D9
- IC50, SDF-1 chemotaxis, Jurkat [3]: 11 nM
- binding result [4]: no binding (tested: 1E-6 M)
- EC50 [5]: 7.28 nM
- EC50 [6]: 11 nM
- IC50 [7]: 18.4 nM
- IC50, CXCL-12 chemotaxis, Jurkat E6-1 [2]: 10.4 nM
- IC50, CXCL-12 chemotaxis, MOLM-13 [2]: 8.62 nM
- EC50 [8]: 9.9 nM

B3: 14A02 (VHH)
VHH: B2 VHH with K31I, N83S, L117Q
- IC50, SDF-1 chemotaxis, Jurkat [3]: 0.95 nM
- EC50 [5]: 0.73 nM
- EC50 [6]: 1.15 nM
- IC50 [7]: 4.1 nM
- EC50 [8]: 4 nM

B4: 14E02 (VHH)
VHH: B2 VHH with K31I, L117Q
notes: also called 14E2
- EC50 [5]: 0.78 nM
- IC50 [7]: 13.5 nM
- EC50 [8]: 2.6 nM

B5: 50F07 (VHH)
VHH: EVQLVESGGGLVQPGGSLRLSCTGSGSTFSINAMGWYRQAPGKQRELVAAITSGGRTNYADSVKGRFTISRDNSKNTVYLQMNSLRPEDTAVYYCNARISAGTAFWLWSDYEYWGLGTLVTVSS
- EC50 [9]: 14.6 nM
- Kd [10]: 74.2 nM
- koff [10]: 0.00758 s⁻¹
- kon [10]: 102000 M⁻¹ s⁻¹
- IC50 [11]: 230 nM
- EC50 [12]: 66 nM

B6: 281F12-35GS-57A07 (bispecific antibody)
chain: EVQLVESGGGLVQAGDSLRLSCAASGRAFSRYAMGWFRQAPGKEREFVAAIGWGPSKTNYADSVKGRFTISRDNAKNTVYLQMNTLKPEDTAVYSCAAKFVNTDSTWSRSEMYTYWGQGTLVTVSSGGGGSGGGGSGGGGSGGGGSGGGGSGGGGSGGGGSEVQLVESGGGLVQAGGSLRLSCAASGSIFSGNVMGWYRRQAPGKEREWVAAIASGGSIYYRDSVKGRFTISRDNAKNTVYLQMNSLKPEDTAVYYCNSHPPTLPYWGQGTLVTVSS
notes: FLAG3-His6 also made; also called CXCR4#2-CD123#1; 281F12-57A07
- EC50 (read off the curve) [13]: ~0.5 nM
- Fold inc. vs CXCR4#2, Jurkat E6-1 [2]: 2.55 fold
- Fold inc. vs CXCR4#2, MOLM-13 [2]: 12.6 fold
- IC50, CXCL-12 chemotaxis, Jurkat E6-1 [2]: 38 nM
- IC50, CXCL-12 chemotaxis, MOLM-13 [2]: 6.83 nM

B7: 55B04 (VHH)
VHH: EVQLVESGGGLVQPGGSLRLSCAASGINFRFNSMGWWRRRAPGKEREWVAAITSGDITNYRDSVRGRFTISRDNVKNTVYLQMNTLKLEDTAVYYCNTFPPIADYWGLGTQVTVSS
- EC50 [9]: 51.2 nM
- Kd [10]: 15.8 nM
- koff [10]: 0.00794 s⁻¹
- kon [10]: 504000 M⁻¹ s⁻¹
- IC50 [11]: 55 nM
- EC50 [12]: 1300 nM

B8: 55A01-35GS-281F12 (bispecific antibody)
chain: EVQLVESGGGSVQAGGSLRLSCTTSGRALNMYVMGWFRQAPGNEREFVAATSSSGGSTSYPDSVKGRFTISRDNAKNTVYLQMNSLKPEDTAAYRCAASPYVSTPTMNILEEYRYWGQGTLVTVSSGGGGSGGGGSGGGGSGGGGSGGGGSGGGGSGGGGSEVQLVESGGGLVQAGDSLRLSCAASGRAFSRYAMGWFRQAPGKEREFVAAIGWGPSKTNYADSVKGRFTISRDNAKNTVYLQMNTLKPEDTAVYSCAAKFVNTDSTWSRSEMYTYWGQGTLVTVSS
notes: also called CD123#2-CXCR4#2; 55A01-281F12
- EC50 (read off the curve) [14]: ~10 nM
- EC50 (read off the curve) [1]: ~1 nM

B9: 55C05 (VHH)
VHH: EVQLVESGGGLVPAGDSLRLSCVASGRSLNTYTMGWFRQAPGKECEFVAAINWNGVYRDYADSAKGRFTASRDNAMNTVFLQMNSLKPEDTAVYFCATATQGWDRHTEPSDFGSWGLGTQVTVSS
- EC50 [9]: 31.2 nM
- Kd [10]: 59 nM
- koff [10]: 0.00741 s⁻¹
- kon [10]: 126000 M⁻¹ s⁻¹
- IC50 [11]: 190 nM
- EC50 [12]: 4100 nM
